The labels stand for the following.
T1: PF3D7_0420300 D1 (Plasmodium falciparum, UniProt Q8I1N6 1956-2015)
T1 sequence: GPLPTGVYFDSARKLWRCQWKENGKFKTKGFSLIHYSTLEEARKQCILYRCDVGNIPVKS

B1: CACACA_negctrl_site73 (dsDNA)
DNA 1: TTGATGTATACAATGTAGATTATTTAATATTTCAAC
DNA 2: GTTGAAATATTAAATAATCTACATTGTATACATCAA
B2: CACACA_negctrl_site1642 (dsDNA)
DNA 1: TGTTGCAAAACAAAAAAAAAAAAAAAAAATAATAAT
DNA 2: ATTATTATTTTTTTTTTTTTTTTTTGTTTTGCAACA
B3: CACACA_negctrl_site1686 (dsDNA)
DNA 1: ACAAGTGTATATGTTATATATATATATATATATATA
DNA 2: TATATATATATATATATATATAACATATACACTTGT
B4: CACACA_negctrl_site1632 (dsDNA)
DNA 1: AATTCACATGTGAACTAAAAGAATATTATATATATA
DNA 2: TATATATATAATATTCTTTTAGTTCACATGTGAATT
B5: CACACA_negctrl_site942 (dsDNA)
DNA 1: ATATTATGAAGGGATATTTTCAAAAATATTAGGAGA
DNA 2: TCTCCTAATATTTTTGAAAATATCCCTTCATAATAT
B6: CACACA_negctrl_site706 (dsDNA)
DNA 1: TTTCTTATATTATATAAATATATAGATGTTAATGGT
DNA 2: ACCATTAACATCTATATATTTATATAATATAAGAAA
B7: CACACA_negctrl_site461 (dsDNA)
DNA 1: AGATATAGGAAAATAATATATATATATTTTTTTTTT
DNA 2: AAAAAAAAAATATATATATATTATTTTCCTATATCT
B8: CACACA_negctrl_site1134 (dsDNA)
DNA 1: GTTTGATAACACCTACAAACTCTTTTTTTTTTTTTT
DNA 2: AAAAAAAAAAAAAAGAGTTTGTAGGTGTTATCAAAC
B9: CACACA_negctrl_site251 (dsDNA)
DNA 1: AAGAATGTTATATTATGATGCTGTCTTTTTTTAAGA
DNA 2: TCTTAAAAAAAGACAGCATCATAATATAACATTCTT
B10: CACACA_negctrl_site610 (dsDNA)
DNA 1: ATTATAAGAATTAAAAGAAACAAAATTTTAATTATA
DNA 2: TATAATTAAAATTTTGTTTCTTTTAATTCTTATAAT
B11: CACACA_negctrl_site1016 (dsDNA)
DNA 1: TATATTCCACTCATTGATTTTCTCTTCTCACAAAAA
DNA 2: TTTTTGTGAGAAGAGAAAATCAATGAGTGGAATATA
B12: CACACA_site8011 (dsDNA)
DNA 1: AGCACCCACCAACACACACACACACCCACCCACCCA
DNA 2: TGGGTGGGTGGGTGTGTGTGTGTGTTGGTGGGTGCT
B13: CACACA_negctrl_site83 (dsDNA)
DNA 1: GTGTGGTTACAGACACGAACACATTTTTTAAATATT
DNA 2: AATATTTAAAAAATGTGTTCGTGTCTGTAACCACAC
B14: CACACA_negctrl_site1797 (dsDNA)
DNA 1: AGATTATATATATGTATATATGTATATATTTATATA
DNA 2: TATATAAATATATACATATATACATATATATAATCT
B15: CACACA_negctrl_site608 (dsDNA)
DNA 1: GTATATATATATATATATATAATAGTAACTTTTACT
DNA 2: AGTAAAAGTTACTATTATATATATATATATATATAC
B16: CACACA_negctrl_site754 (dsDNA)
DNA 1: TATATTTGTACATGATATTTTTTTTTTCTTTTAAAA
DNA 2: TTTTAAAAGAAAAAAAAAATATCATGTACAAATATA
B17: CACACA_negctrl_site54 (dsDNA)
DNA 1: AATAAAAAAAAAATATATATTTTTTTTTTTTTTTTT
DNA 2: AAAAAAAAAAAAAAAAATATATATTTTTTTTTTATT

The data set addresses T1, PF3D7_0420300 D1. Nature of the data set: gcPBM; about 25 ug protein; PBS, 1% milk, 0.2 mg/ml BSA, salmon testes DNA, 0.03% Triton X-100. The conditions noted are these: tags: N-terminal GST (pGEX-4T-1), kept; label: surface-attached array probe.
For the molecule B1, the binding signal is 9.09 ln median PBM intensity, better of two orientations.

Turning to B2, the binding signal was 9.09 ln median PBM intensity, better of two orientations.

Turning to B3, the binding signal was 9.1 ln median PBM intensity, better of two orientations.

B4: the binding signal is 9.11 ln median PBM intensity, better of two orientations.

On to B5, for which the binding signal is 9.11 ln median PBM intensity, better of two orientations.

For B6, the binding signal was 9.08 ln median PBM intensity, better of two orientations.

Consider B7, for which the binding signal is 9.11 ln median PBM intensity, better of two orientations.

As to B8, the binding signal was 9.08 ln median PBM intensity, better of two orientations.

On to B9, for which the binding signal is 9.08 ln median PBM intensity, better of two orientations.

On to B10, for which the binding signal is 9.07 ln median PBM intensity, better of two orientations.

On to B11, for which the binding signal is 9.1 ln median PBM intensity, better of two orientations.

Take B12: the binding signal is 10.6 ln median PBM intensity, better of two orientations.

As to B13, the binding signal was 9.09 ln median PBM intensity, better of two orientations.

Take B14: the binding signal was 9.11 ln median PBM intensity, better of two orientations.

As for B15, the binding signal was 9.1 ln median PBM intensity, better of two orientations.

Turning to B16, the binding signal is 9.1 ln median PBM intensity, better of two orientations.

Regarding B17, the binding signal was 9.09 ln median PBM intensity, better of two orientations.

These data come from article PMC11417369, “DNA sequence and chromatin differentiate sequence-specific transcription factor binding in the human malaria parasite Plasmodium falciparum”.
